From patent US20240366728A1, “Treatment of Diabetes Mellitus” (Carmot Therapeutics Inc., priority 2023, published 2024)

Molecular target: mouse GLP-1R (mouse) (UniProt O35659)
Test: cell-based or functional assay

Chain of mouse GLP-1R (mouse) (O35659 22-463): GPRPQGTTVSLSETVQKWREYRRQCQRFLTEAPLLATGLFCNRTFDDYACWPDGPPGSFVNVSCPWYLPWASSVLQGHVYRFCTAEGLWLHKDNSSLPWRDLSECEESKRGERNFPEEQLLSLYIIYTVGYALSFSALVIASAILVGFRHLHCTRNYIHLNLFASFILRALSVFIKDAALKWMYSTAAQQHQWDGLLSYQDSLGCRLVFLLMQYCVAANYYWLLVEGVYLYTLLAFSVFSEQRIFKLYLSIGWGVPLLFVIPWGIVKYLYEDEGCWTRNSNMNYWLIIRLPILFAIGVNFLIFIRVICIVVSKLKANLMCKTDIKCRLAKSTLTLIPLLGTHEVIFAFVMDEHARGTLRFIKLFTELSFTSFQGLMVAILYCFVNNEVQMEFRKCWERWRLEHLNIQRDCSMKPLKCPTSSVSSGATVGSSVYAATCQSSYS

Row | mGLP-1R cAMP (-alb) % Emax [%] | mGLP-1R β-arrestin-2 % Emax [%] | cAMP accumulation EC50 [pM] | β-arrestin-2 recruitment [%] | Substance
1 | 92 | 80.7 | – | – | Liraglutide (peptide)
2 | – | – | 3 | 99 | Human GLP-1 (7-36) (from UniProt P01275 21-180) (ligand)
